For one test, the system named is CDK2. The test is described as follows: TaqMan assay of CDK2 gene expression. The format is cell-based, human. The conditions noted are these: 24 hours post-editing; FIG. 16A-B. (In general: Real-time PCR tracks product formation cycle by cycle.)
Test [1] concerns human CD34+ cells. Nature of the test: Cell cycle analysis by Hoechst 33342 staining. The format is cell-based. The conditions noted are these: for cell cycle states (G1 to S/G2/M): bulk treated cells, 12-24 hours, FIG. 14H. The protocol:
Cell cycle was analysed by flow cytometry (CytoFLEX LX; Beckman Coulter) at 12-24 hours post-editing by collecting 0.5-1×10^5 total HSPCs in culture. Cells were washed with PBS+2% FBS and stained by using 10 μg/ml Hoechst 33342 (Sigma-Aldrich) in PBS+2% FBS for 0.5-1 hour in final volume equal to 200 μl.

In test [2] the test system is human CD34+ cells. The test is described as follows: Culture (subpopulation) composition of edited CD34+ cells by flow cytometry. The format is cell-based. Here is the method:
For immunophenotypic analyses (performed on FACSCanto II; BD Pharmingen), we used the antibodies listed below. Single stained and Fluorescence Minus One stained cells were used as controls. LIVE/DEAD Fixable Dead Cell Stain Kit (Thermo Fisher), 7-aminoactinomycin (Sigma Aldrich), were included in the sample preparation for flow cytometry according to the manufacturer's instructions to exclude dead cells from the analysis. Cell sorting was performed using MoFlo XDP Cell Sorter (Beckman Coulter) or FACSAria Fusion (BD Biosciences).

A further test concerns human primary T cells. Nature of the test: Gene editing of human primary T cells. The conditions noted are these: 20 days after treatment; bulk CD3+, CD4 and CD8 subpopulations; FIG. 9B. Format: cell-based. From the text: Finally, we tested the delivery of the E4orf6/7 mRNA together with the Cas9 ribonucleoprotein (RNP) into human primary T cells (peripheral blood derived total CD3+ cells) before AAV6 transduction for the delivery of the donor DNA template (FIG. 9A).

The subject of test [3] is HDR-edited human cells in NSG mice. Nature of the test: Barcoding-based clonal tracking of edited cells in transplanted NSG mice. The format is in vivo. Particulars: AAVS1; FIG. 12E. From the text: The barcoded AAV6 donor template targeting the AAVS1 locus was obtained by subcloning the degenerated sequence into the previously reported AAVS1 AAV6 transfer vector plasmid downstream of the polyadenylation sequence. Briefly, a ssODN embedding the random sequence flanked by the unique cloning restriction sites (Bsu36l and Sphl) was obtained from Sigma Aldrich. The degenerated region was designed to avoid any undesired cutting by cloning restriction enzymes. To generate the complementary strand, 50 pmol of the ssODN were amplified with 10 cycles of PCR with Easy-A High-Fidelity enzyme (Agilent Technologies) using the appropriate forward and reverse primers according to the manufacturer's instructions. The amplified product was purified with MinElute PCR Purification kit (QIAGEN), digested with the restriction enzymes and checked by capillary electrophoresis. 2 μg of the Bsu36l/Sphl-digested AAVS1 HDR donor template were ligated with the digested insert (molar ratio 1:7) using T4 DNA Ligase (NEB) by scaling up the manufacturer's protocol. […]
PCR amplicons for each individual sample were generated by one-step PCR using Taq G2 Hot Start Polymerase (Promega). […] PCR library amplicons were separately purified using MinElute PCR Purification kit (QIAGEN) and quality was assessed by Agilent Tapestation (Agilent Technologies). […]

Test [4] deals with human CD34+ cells. Nature of the test: Cell growth curve of edited CD34+ cells. Format: cell-based.
Test [5] deals with human CD34+ cells transplanted into NSG mice. The test is described as follows: Xenotransplantation of edited human CD34+ cells in NSG mice. Format: in vivo. Particulars: limit cells dose T0eq=1×10^5/mouse; FIG. 19A.
Test [6] deals with p53-target genes (CDKN1A, PHLDA3, RPS27L, APOBEC3H). The test is described as follows: TaqMan expression of p53-target genes in edited CD34+ cells. The format is cell-based, human. Particulars: 24 hrs after electroporation; FIG. 3B. The text has this:
For gene expression analyses, total RNA was extracted using the RNeasy Plus Micro Kit (QIAGEN). cDNA was synthetized with SuperScript VILO IV cDNA Synthesis Kit (Invitrogen) and used for Q-PCR in a Viia7 Real-time PCR thermal cycler using TaqMan Gene Expression Assays (Applied Biosystems) mapping to CDKN1A, RPS27L, PHLDA3, APOBEC3H, and HPRT as normalizer. The relative expression of each gene was first normalized to HPRT expression and then represented as fold change relative to the mock-treated sample.

B1: E4orf6/7: adenoviral protein from adenovirus serotype 5 E4 gene (SEQ ID No. 2), delivered as mRNA (protein)
chain: MTTSGVPFGMTLRPTRSRLSRRTPYSRDRLPPFETETRATILEDHPLLPECNTLTMHNAWTSPSPPVKQPQVGQQPVAQQLDSDMNLSELPGEFINITDERLARQETVWNITPKNMSVTHDMMLFKASRGERTVYSVCWEGGGRLNTRVL
modifications: delivered as mRNA; example amino acid sequence of Ad5-E4orf6/7
For B1, the CDK2 expression entry in the test with CDK2 is “significantly up-regulated”. Further, in the test with human CD34+ cells [1], the “cell cycle states (G1 to S/G2/M)” value is “significant transition from G1 phase to S/G2/M phases”. In addition, the “CD90+ fraction in culture composition” value in the test with human CD34+ cells [2] (96 hours, FIG. 14E) was “significant skewing”. Further, in the test on human CD34+ cells [2] (FIG. 10C), the culture composition entry is listed as “without any skew in the culture composition”. Also, the “increase in the percentage of GFP+ cells compared to standard” value with human primary T cells is on record as 1.5 fold.

B2: GSE56: p53 dominant negative peptide (SEQ ID No. 9), transiently overexpressed from electroporated mRNA (protein)
chain: MDGWCPGRDRRTEEENFRKKEEHCPELPPGSAKRALPTSTSSSPQQKKKPLDGEYFTLKIRGRERFEMFRELNEALELKDARAAEESGDSRAHSSYPKIVS
modifications: amino acid sequence of GSE56
Turning to B2, the “number of dominant clones in haematopoietic organs, vs standard” value in test [3] is 6.5 fold. Also, the “expansion of treated HSPC” value in the test on human CD34+ cells [4] (AAVS1 edited cells, FIG. 3D) was “higher expansion”. Further, in the test on human CD34+ cells [4] (days post-editing, FIG. 14B), the “cell growth compared to standard RNP+AAV6” value is recorded as “about 2 fold”. Moreover, the CDK2 expression entry in the test with CDK2 was “remained always at basal level”. Also, in the test on human CD34+ cells [1] (24 hours after gene editing, FIG. 12A), the “percentage of cells in S/G2/M phases” value is reported as “partially rescued”. Further, the “cell cycle states (G1 to S/G2/M)” value in the test with human CD34+ cells [1] is “lower and not significant”. Further, in test [5], the “engraftment of treated cells compared to standard protocol” value was 5-6 fold. Moreover, in the test with human CD34+ cells [2] (3 days post editing, vs untreated controls, FIG. 3E), the “relative composition of the hematopoietic populations” value is “no change in relative composition”. Besides, the “amplitude of the p53-dependent transcriptional response (downstream target genes)” value in test [6] is listed as “reduce the amplitude of the p53-dependent transcriptional response”.

(Values after patent US12558435B2, “Transient inhibition of p53 in gene therapy” (Ospedale San Raffaele S.R.L., priority 2018, dated 2026).)
